Test results reported in article doi:10.1101/2025.08.22.671756, “Structural basis of Drosophila insulin receptor activation by DILP2 hormone” (bioRxiv, 2025).

Molecular target: the molecule itself
Assay: cryo-EM structure; dmIR-ECD 0.2 mg/ml in SEC buffer (25 mM HEPES pH 8.0, 200 mM NaCl) incubated with 40-fold molar excess of DILP2 at room temperature for 30 min; two conformers from subsets of the particles (3.75 Å and 6.25 Å maps)

B1: Drosophila melanogaster insulin receptor ectodomain (dmIR-ECD) (domain or fragment, UniProt P09208 291-1309, looked up)
chain: LPAHQQHLLHNDIADGLDKTALSVSGTQSRWTRSESNPTMRLSQNVKPCKSMDIRNMVSHFNQLENCTVIEGFLLIDLINDASPLNRSFPKLTEVTDYIIIYRVTGLHSLSKIFPNLSVIRGNKLFDGYALVVYSNFDLMDLGLHKLRSITRGGVRIEKNHKLCYDRTIDWLEILAENETQLVVLTENGKEKECRLSKCPGEIRIEEGHDTTAIEGELNASCQLHNNRRLCWNSKLCQTKCPEKCRNNCIDEHTCCSQDCLGGCVIDKNGNESCISCRNVSFNNICMDSCPKGYYQFDSRCVTANECITLTKFETNSVYSGIPYNGQCITHCPTGYQKSENKRMCEPCPGGKCDKECSSGLIDSLERAREFHGCTIITGTEPLTISIKRESGAHVMDELKYGLAAVHKIQSSLMVHLTYGLKSLKFFQSLTEISGDPPMDADKYALYVLDNRDLDELWGPNQTVFIRKGGVFFHFNPKLCVSTINQLLPMLASKPKFFEKSDVGADSNGNRGSCGTAVLNVTLQSVGANSAMLNVTTKVEIGEPQKPSNATIVFKDPRAFIGFVFYHMIDPYGNSTKSSDDPCDDRWKVSSPEKSGVMVLSNLIPYTNYSYYVRTMAISSELTNAESDVKNFRTNPGRPSKVTEVVATAISDSKINVTWSYLDKPYGVLTRYFIKAKLINRPTRNNNRDYCTEPLVKAMENDLPATTPTKKISDPLAGDCKCVEGSKKTSSQEYDDRKVQAGMEFENALQNFIFVPNIRKSKNGSSDKSDGAEGAALDSNAIPNGGATNPSRRRRDVALEPELDDVEGSVLLRHVRSITDDTDAFFEKDDENTYKDEEDLSSNKQFYEVFAKELPPNQTHFVFEKLRHFTRYAIFVVACREEIPSEKLRDTSFKKSLCSDYDTVFQTTKRKKFADIVMDLKVDLEHANNTESPVRVRWTPPVDPNGEIVTYEVAYKLQKPDQVEEKKCIPAADFNQTAGYLIKLNEGLYSFRVRANSIAGYGDFTEVEHIKVEPPPSYA
notes: Insulin receptor (dmIR), Drosophila melanogaster, ectodomain; Expressed from codon-optimised DNA for residues 264-1309 with an added start codon; the results name the construct 291Leu-1309Ala; Described as an (αβ)2 homodimer; N-glycans are visible in the maps; also called dmIR ectodomain; 291Leu-1309Ala dmIR-ECD construct; source: Sf9 (ExpiSf9) cells, baculovirus, conditioned media, purified …
binding result: binds
